The values below come from article PMC6130949, “The rational design of affinity-attenuated OmCI for the purification of complement C5” (The Journal of Biological Chemistry, 2018).

Several values for one entry are separate records, joined by “and”; a condition that tells them apart may be missing. Equal values may be shown once. Some results are limits rather than exact numbers.

Experiment [1] has as its target Wildtype OmCI (Ornithodoros moubata) (UniProt Q5YD59). Kind of experiment: differential scanning calorimetry; C5 (CompTech) and OmCI mixed in 1:1.25 molar ratio, at least 6 h at 4 °C, PBS; heated 10-100 °C at 1 °C/min; n = 1. A general note: In DSC, transitions show as peaks or steps in heat flow.
Experiment [2] addresses OmCI D167A (Ornithodoros moubata) (UniProt Q5YD59). Kind of experiment: SPR; single-cycle kinetics, Biacore 8K; OmCI amine coupled to a CM5 chip (~50 RU); C5 (CompTech) as analyte, 9-point 3-fold titration from 500 nM in HBS-EP, 40 ul/min, contact 230 s, dissociation 900 s; single-site binding model. (In SPR one partner is held on a chip, and binding of the other changes the refractive index at the surface.)

Experiment [3] deals with OmCI E141A (Ornithodoros moubata) (UniProt Q5YD59). The description is as above.
In experiment [4] the target is OmCI E141A/H164A (Ornithodoros moubata) (UniProt Q5YD59). The description is as above.
Experiment [5] has as its target OmCI E141A/L140G (Ornithodoros moubata) (UniProt Q5YD59). The experiment is described as above.
The target of experiment [6] is OmCI E141A/R47A (Ornithodoros moubata) (UniProt Q5YD59). Described as above.
Experiment [7] addresses OmCI E141A/R47A/H164A/L140G (Ornithodoros moubata) (UniProt Q5YD59). The experiment is described as above.
Experiment [8] concerns the target OmCI E141A/R47A/L140G (Ornithodoros moubata) (UniProt Q5YD59). The description is as above.
Experiment [9] deals with OmCI F36W (Ornithodoros moubata) (UniProt Q5YD59). The description is as above.
Experiment [10] addresses OmCI H117A (Ornithodoros moubata) (UniProt Q5YD59). The description is as above.
The target in experiment [11] is OmCI H164A (Ornithodoros moubata) (UniProt Q5YD59). The experiment is described as above.
Experiment [12] deals with OmCI L140G (Ornithodoros moubata) (UniProt Q5YD59). The experiment is described as above.
Experiment [13] has as its target OmCI M134G (Ornithodoros moubata) (UniProt Q5YD59). The description is as above.
Experiment [14] deals with OmCI R47A (Ornithodoros moubata) (UniProt Q5YD59). Described as above.
Experiment [15] has as its target OmCI E141A (Ornithodoros moubata) (UniProt Q5YD59). Kind of experiment: SPR; multicycle kinetics, Biacore 8K; OmCI biotinylated on the N-terminal AVI tag and captured on an SA streptavidin chip (20-100 RU); C5 as analyte, 7-point 3-fold titration from 250 nM in HBS-EP, 30 ul/min, contact 240 s, dissociation 3600 s; regeneration with 0.1 M citric acid pH 2.0; single-site binding model.

In experiment [16] the target is OmCI E141A/H164A (Ornithodoros moubata) (UniProt Q5YD59). Described as above.
The target of experiment [17] is OmCI E141A/R47A (Ornithodoros moubata) (UniProt Q5YD59). The experiment is described as above.
Experiment [18] concerns the target Wildtype OmCI (Ornithodoros moubata) (UniProt Q5YD59). The description is as above.
In experiment [19] the target is Complement component C5 from human serum (human (endogenous in human serum)).
Another experiment has as its target T1, Complement component C5 (UniProt P01031 19-673; P01031 678-1676).
T1 construct: complement C5 beta chain; complement C5 alpha chain; Commercial C5 from CompTech; source: bought: CompTech
Kind of experiment: SPR; multicycle kinetics, Biacore 8K; biotinylated OmCI captured by its N-terminal AVI tag on an SA streptavidin chip; C5 as analyte, 7-point 3-fold titration from 250 nM in HBS-EP, 30 ul/min, contact 240 s, dissociation 3600 s; single-site binding model; values of the individual occasions (n=1 to n=4). As to conditions: both partners purified.

T1 sequence (P01031 19-673, chain 1 of 2): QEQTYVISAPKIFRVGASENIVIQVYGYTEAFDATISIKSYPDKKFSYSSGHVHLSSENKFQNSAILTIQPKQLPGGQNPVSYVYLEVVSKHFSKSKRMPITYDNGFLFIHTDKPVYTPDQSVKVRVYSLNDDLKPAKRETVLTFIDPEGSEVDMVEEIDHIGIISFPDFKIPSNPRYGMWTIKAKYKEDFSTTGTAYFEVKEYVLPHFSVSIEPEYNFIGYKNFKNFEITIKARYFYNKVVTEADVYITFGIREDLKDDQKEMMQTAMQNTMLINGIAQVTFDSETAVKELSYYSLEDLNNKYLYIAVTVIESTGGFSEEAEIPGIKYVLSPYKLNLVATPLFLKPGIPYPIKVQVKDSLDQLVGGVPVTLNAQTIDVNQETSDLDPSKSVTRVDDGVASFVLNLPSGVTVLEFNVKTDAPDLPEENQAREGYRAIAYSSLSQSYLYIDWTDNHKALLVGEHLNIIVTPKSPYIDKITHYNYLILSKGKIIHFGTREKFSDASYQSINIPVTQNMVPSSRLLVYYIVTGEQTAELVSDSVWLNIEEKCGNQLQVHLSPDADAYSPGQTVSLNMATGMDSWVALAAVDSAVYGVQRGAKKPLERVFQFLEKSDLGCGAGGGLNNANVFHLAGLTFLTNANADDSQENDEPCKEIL
T1 sequence (P01031 678-1676, chain 2 of 2): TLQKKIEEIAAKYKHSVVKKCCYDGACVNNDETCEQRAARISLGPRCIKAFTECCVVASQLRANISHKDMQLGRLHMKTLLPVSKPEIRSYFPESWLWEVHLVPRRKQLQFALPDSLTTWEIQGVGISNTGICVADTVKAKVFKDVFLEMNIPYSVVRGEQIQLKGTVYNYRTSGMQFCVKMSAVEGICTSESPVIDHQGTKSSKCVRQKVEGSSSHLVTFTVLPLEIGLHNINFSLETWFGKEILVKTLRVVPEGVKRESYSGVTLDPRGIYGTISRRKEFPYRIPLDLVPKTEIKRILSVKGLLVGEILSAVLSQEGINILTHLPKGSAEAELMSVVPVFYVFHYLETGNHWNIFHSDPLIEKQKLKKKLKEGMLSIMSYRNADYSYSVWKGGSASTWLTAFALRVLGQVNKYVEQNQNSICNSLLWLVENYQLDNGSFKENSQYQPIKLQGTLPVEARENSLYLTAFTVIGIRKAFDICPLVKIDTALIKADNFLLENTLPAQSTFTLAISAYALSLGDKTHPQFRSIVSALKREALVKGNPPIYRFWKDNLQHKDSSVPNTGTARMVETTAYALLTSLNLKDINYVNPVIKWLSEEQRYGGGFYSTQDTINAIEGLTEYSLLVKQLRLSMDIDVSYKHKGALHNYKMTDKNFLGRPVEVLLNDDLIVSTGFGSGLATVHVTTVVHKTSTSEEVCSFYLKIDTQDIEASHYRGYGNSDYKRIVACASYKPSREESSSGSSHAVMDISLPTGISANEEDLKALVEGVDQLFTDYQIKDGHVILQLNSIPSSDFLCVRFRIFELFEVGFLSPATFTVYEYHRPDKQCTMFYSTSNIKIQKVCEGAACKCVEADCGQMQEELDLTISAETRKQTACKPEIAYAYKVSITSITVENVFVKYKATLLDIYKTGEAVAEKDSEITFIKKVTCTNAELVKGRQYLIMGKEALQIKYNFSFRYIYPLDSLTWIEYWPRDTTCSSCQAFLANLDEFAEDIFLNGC

One may read the Kd as the free concentration of one partner at which half of the binding sites on the other are occupied at equilibrium, for simple one-to-one binding. As a reminder, the koff is the rate constant with which the complex falls apart. A word on the kon: it is a measure of how fast the partners come together. A higher kon goes with faster complex formation. One may read the stoichiometry N as the number of molecules, sites or subunits per partner or assembly. Regarding “Complement component C5 (CompTech) (natural protein)”, the ΔTm of the main C5 unfolding peak on complexing in experiment [1] amounted to 8.6 °C. For the same molecule, the approximate fold change in koff relative to WT OmCI in experiment [2] was found to be 2.4 fold; in experiment [3], 29.1 fold; in experiment [4], 197 fold; in [5], 31.3 fold; in experiment [6], 973 fold; in experiment [7], 5500 fold. For the same molecule, the approximate fold change in koff relative to WT OmCI in [8] was found to be 1270 fold; in experiment [9], 2.6 fold; in experiment [10], 1.1 fold; in [11], 3.5 fold; in experiment [12], 1 fold; in experiment [13], 229 fold. Besides, in [14], the approximate fold change in koff relative to WT OmCI was found to be 4.1 fold. Moreover, the Kd in [15] was 0.709 nM; in experiment [16], 4.09 nM; in experiment [17], 13.1 nM; in [18], below 0.1 nM. Also, the koff was 0.000304 s⁻¹ in experiment [15], 0.00406 s⁻¹ in experiment [16], 0.0318 s⁻¹ in experiment [17] and below 1e-05 s⁻¹ in experiment [18]. Moreover, the kon in [15] came out at 481000 M⁻¹ s⁻¹; in [16] it was 1.13e+06 M⁻¹ s⁻¹; in experiment [17] it was 3.01e+06 M⁻¹ s⁻¹; in experiment [18], 588000 M⁻¹ s⁻¹. For the same molecule, the stoichiometry N in experiment [18] is below 1.
Regarding “Complement component C5 from human serum (natural protein)”, in experiment [18], the Kd is below 0.1 nM.
As to “OmCI E141A (from UniProt Q5YD59 19-168) (natural protein)”, in experiment [19], the pIC50, alternative pathway (AP) complement activation ELISA (inhibition of MAC formation), OmCI titrated from 5 uM in human serum was < 8.9 −log M.
As for “OmCI E141A/H164A (from UniProt Q5YD59 19-168) (natural protein)”, in [19], the pIC50, alternative pathway (AP) complement activation ELISA (inhibition of MAC formation), OmCI titrated from 5 uM in human serum is 8.5 −log M.
Turning to “OmCI E141A/R47A (from UniProt Q5YD59 19-168) (natural protein)”, the pIC50, alternative pathway (AP) complement activation ELISA (inhibition of MAC formation), OmCI titrated from 5 uM in human serum in experiment [19] was 8 −log M.
As to “OmCI H164A (from UniProt Q5YD59 19-168) (natural protein)”, in experiment [19], the pIC50, alternative pathway (AP) complement activation ELISA (inhibition of MAC formation), OmCI titrated from 5 uM in human serum is < 8.8 −log M.
Same read-out and setting: for “OmCI R47A (from UniProt Q5YD59 19-168) (natural protein)” the value was < 9 −log M; for “Wildtype OmCI (from UniProt Q5YD59 19-168) (natural protein)”, < 9 −log M.

B1: Wild-type OmCI with N-terminal 10xHis, TEV site and AVI tag (natural protein)
chain: DSESDCTGSEPVDAFQAFSEGKEAYVLVRSTDPKARDCLKGEPAGEKQDNTLPVMMTFKNGTDWASTDWTFTLDGAKVTATLGNLTQNREVVYDSQSHHCHVDKVEKEVPDYEMWMLDAGGLEVEVECCRQKLEELASGRNQMYPHLKDC
modifications: biotin on the N-terminal AVI tag (Bir-A)
notes: OmCI of Ornithodoros moubata, UniProt Q5YD59, without its signal peptide; No TEV cleavage is described; also called wt OmCI; OmCI WT; source: ExpiHEK 293, transfected, purified from supernatant (nickel-Sepharose Excel); not shown: AVI tag, N-terminal, kept
In the case of B1, in the experiment with Complement component C5, the Kd was below 0.1 nM; the koff was below 1e-05 s⁻¹; the kon was 384000 M⁻¹ s⁻¹ and 400000 M⁻¹ s⁻¹ and 1.14e+06 M⁻¹ s⁻¹ and 432000 M⁻¹ s⁻¹.

B2: OmCI E141A with N-terminal 10xHis, TEV site and AVI tag (natural protein)
chain: DSESDCTGSEPVDAFQAFSEGKEAYVLVRSTDPKARDCLKGEPAGEKQDNTLPVMMTFKNGTDWASTDWTFTLDGAKVTATLGNLTQNREVVYDSQSHHCHVDKVEKEVPDYEMWMLDAGGLAVEVECCRQKLEELASGRNQMYPHLKDC
modifications: biotin on the N-terminal AVI tag (Bir-A)
notes: OmCI of Ornithodoros moubata, UniProt Q5YD59, without its signal peptide; also called OmCI WT E141A; source: ExpiHEK 293, transfected, purified from supernatant (nickel-Sepharose Excel); not shown: AVI tag, N-terminal, kept
Regarding B2, in the experiment with Complement component C5, the Kd was 0.896 nM and 0.395 nM and 0.707 nM and 0.837 nM; the koff is 0.000307 s⁻¹ and 0.000328 s⁻¹ and 0.000273 s⁻¹; the kon is 343000 M⁻¹ s⁻¹ and 830000 M⁻¹ s⁻¹ and 367000 M⁻¹ s⁻¹ and 386000 M⁻¹ s⁻¹.

B3: OmCI E141A/R47A with N-terminal 10xHis, TEV site and AVI tag (natural protein)
chain: DSESDCTGSEPVDAFQAFSEGKEAYVLVASTDPKARDCLKGEPAGEKQDNTLPVMMTFKNGTDWASTDWTFTLDGAKVTATLGNLTQNREVVYDSQSHHCHVDKVEKEVPDYEMWMLDAGGLAVEVECCRQKLEELASGRNQMYPHLKDC
modifications: biotin on the N-terminal AVI tag (Bir-A)
notes: OmCI of Ornithodoros moubata, UniProt Q5YD59, without its signal peptide; source: ExpiHEK 293, transfected, purified from supernatant (nickel-Sepharose Excel); not shown: AVI tag, N-terminal, kept
B3: the Kd with Complement component C5 is 17.6 nM and 7.26 nM and 9.55 nM and 18 nM.

B4: OmCI E141A/H164A with N-terminal 10xHis, TEV site and AVI tag (natural protein)
chain: DSESDCTGSEPVDAFQAFSEGKEAYVLVRSTDPKARDCLKGEPAGEKQDNTLPVMMTFKNGTDWASTDWTFTLDGAKVTATLGNLTQNREVVYDSQSHHCHVDKVEKEVPDYEMWMLDAGGLAVEVECCRQKLEELASGRNQMYPALKDC
modifications: biotin on the N-terminal AVI tag (Bir-A)
notes: as for B3
With B4, in the experiment with Complement component C5, the Kd was 5.13 nM and 5.35 nM and 1.8 nM; the koff was 0.00438 s⁻¹ and 0.00489 s⁻¹ and 0.00292 s⁻¹; the kon was 855000 M⁻¹ s⁻¹ and 913000 M⁻¹ s⁻¹ and 1.62e+06 M⁻¹ s⁻¹.
